Data: US12662676B2, “Aptamer nucleic acid molecule, and complex and application thereof” (EAST CHINA UNIVERSITY OF SCIENCE AND TECHNOLOGY, priority 2019, dated 2026)

What was measured:
[1] = test system: BY4741 strain expressing F30-Pepper-1; assay: Labeling of yeast RNA; format: cell-based; conditions: 2 μM III-3 in PBS, 10 hours after galactose induction
Excerpt: In order to test the effect of Pepper-III-3 in yeast, a yeast expression plasmid expressing F30-Pepper-1 was constructed. The F30-Pepper-1 DNA fragment in Example 2 was amplified using primers, and the amplified F30-Pepper-1 fragment was inserted into the pYES2.1TOPO TA vector according to the commonly used experimental method (4). The obtained recombinant plasmid was named pYES2.1-F30-Pepper-1.
The recombinant plasmid pYES2.1-F30-Pepper-1 was transformed into BY4741 strain, and a single clone was picked and cultured at 30° C. to an OD600=0.1 before addition of 1 mM galactose to induce the expression of F30-Pepper-1. 10 hours after induction, the yeast cells were harvested and resuspended in PBS containing 2 μM III-3. The untreated BY4741 strain was used as the control.

[2] = test system: BL21(DE3, Star) E. coli strain expressing F30-Pepper-1; assay: Labeling of bacterial RNA; format: cell-based; conditions: 2 μM III-3 in PBS, 4 hours after IPTG induction
Excerpt: In order to test the effect of Pepper-III-3 in bacteria, a bacterial expression plasmid expressing F30-Pepper-1 was constructed. Primers were used to amplify F30-Pepper-1 in Example 2. Primers were used to amplify pET28a to remove the promoter and multiple cloning site regions. The obtained F30-Pepper-1 fragment and the linearized pET28a were ligated according to the commonly used experimental method (4). The obtained recombinant plasmid was named pET28a-T7-F30-Pepper-1.
The recombinant plasmid pET28a-T7-F30-Pepper-1was transformed into BL21(DE3, Star) E. coli strain. A single clone was picked and cultured at 37° C. to an OD600 around 0.2 before addition of 1 mM IPTG to induce the expression of F30-Pepper-1. 4 hours after induction, the bacteria were harvested and resuspended in PBS solution containing 2 μM III-3. BL21 (DE3, Star) E. coli transformed with pET28a empty vector was used as the control.

[3] = Native PAGE oligomerization identification; conditions: F30-Broccoli and F30-2dBroccoli as controls
Excerpt: In order to detect whether Pepper binds to III-3 in the form of monomer or polymer, F30-Pepper-1 was identified by the Native PAGE using the monomeric F30-Broccoli (SEQ ID NO: 4) and F30-2dBroccoli (SEQ ID NO: 5) (Filonov et al. Journal of the American Chemical Society 2014. 136: 16299-16308; Filonov et al. Chemistry & biology 2015. 22: 649-660) as the controls. The fluorescence imaging result was compared with the staining result by SYBR Gold (universal nucleic acid dye that was purchased from Invitrogen).

[4] = Thermostability of Pepper (fluorescence after 5 minutes at different temperatures); format: physicochemical; conditions: 1 μM aptamer with 10 μM fluorophore (III-3 for F30-Pepper-1, DFHBI-1T for F30-Broccoli), 5 minutes at each temperature
Procedure: In order to test the thermostability of Pepper, 10 μM III-3 was incubated with 1 μM F30-Pepper-1, and then was placed at different temperatures for 5 minutes before the fluorescence was determined. 10 μM DFHBI-1T was incubated with 1 μM F30-Broccoli to be as the control.

[5] = Fluorescence activation of III-3 fluorophore by Pepper aptamers and mutants; format: biochemical; conditions: 1 μM III-3 with 5 μM RNA
Procedure: Preparation of Pepper or Pepper mutant aptamer according to the commonly used experimental method (1). 5 μM aptamer and 1 μM fluorophore were incubated in the detection buffer (40 mM HEPES, pH 7.4, 125 mM KCl, 5 mM MgCl2, 5% DMSO). The maximal excitation and emission peaks of the aptamer-fluorophore complexes were determined using a Synergy Neo2 multifunctional microplate reader. The fluorescence intensities of the aptamer-fluorophore complexes at the maximal excitation and emission peaks were determined using a Synergy Neo2 multifunctional microplate reader. The control sample (1 μM fluorophore without aptamer) was also measured under the same conditions. Then the ratios of fluorescence intensity were calculated. For example, the fluorescence maximal excitation and emission peaks of the complex of 5 μM F30-Pepper-2 and 1 μM III-3 fluorophore are 485 nm and 530 nm, respectively. The fluorescence intensity of the complex at 485±10 nm excitation and 530 nm±10 nm emission was 36,000, the fluorescence intensity of the control sample (1 μM III-3 fluorophore only) under the same detection conditions was 10. Thus, the activation ratio of F30-Pepper-2 aptamer on III-3 fluorophore was 3,600-fold.
In order to detect the fluorescence activation of III-3 fluorophore by different Pepper mutant, the Pepper-1 sequence in F30-Pepper-1 was mutated according to Table 1. […] 1 μM III-3 was incubated with […] RNA and their fluorescence activation folds were determined according to the commonly used experimental method (5). […] In summary, many Pepper mutants containing single and multiple mutants still retain the ability to activate the fluorescence of III-3 fluorophore.
In order to detect the activation of III-3 by modified Pepper, base-modified Pepper-3 was synthesized (SEQ ID NO: 6, the underlined nucleotides in […] GGCC contain deoxyribonucleotide bases) and Pepper-4 (SEQ ID NO: 7, the underlined nucleotides in […] GGGCC contain 2′-F modification) (synthesized by Shanghai GenePharma Co., Ltd), which contain deoxyribonucleotides replacement (shaded bases in FIG. 5A) or 2′-F modification (shaded bases in FIG. 5B) in the stem-loop region of Pepper. Detection of the fluorescence activation of III-3 fluorophore by these modified Peppers was carried out according to the commonly used experimental method (5).

[6] = Binding constant of Pepper and III-3; conditions: 2 nM F30-Pepper-1 with different concentrations of III-3
Procedure: In order to detect the binding constant of Pepper and III-3, 2 nM F30-Pepper-1 was incubated with different concentrations of III-3 and their fluorescence was determined.

[7] = RNA extraction and purification with Mal-III-3 beads, in-gel fluorescence; conditions: gel incubated with 5 μM III-3 for 30 min
Procedure: In order to use Pepper for RNA extraction and purification, the pCDNA3.1 hygro(+)-TagBFP-4Pepper-7 and pCDNA3.1 hygro(+)-mCherry-4Pepper-7 plasmids in Example 12 were transfected into COS-7 cells, respectively. 24 hours after transfection, the cells were collected and the total RNA of the cells was extracted using the Easyp Super Total RNA Extraction Kit (Promega). The extracted total RNA was dissolved in buffer containing 40 mM HEPES, pH 7.4, 125 mM KCl, 5 mM MgCl2. The RNA was incubated at 70° C. for 10 min and placed at room temperature for more than 30 min.
500 μL activated Thiol Sepharose 4B (GE Healthcare) was washed twice with 500 μL PBS, and then was incubated with PBS containing 10 mM TCEP (Sigma) for 1 h at room temperature. After washing twice with 500 μL PBS, maleamide conjugated III-3 fluorophore (Mal-III-3) was added to react for 30 min at room temperature, and was washed three times with 500 μL PBS. The treated total RNA was incubated with the treated beads at room temperature. After 30 minutes, the mixture was centrifuged at 4000 rpm for 2 minutes, and the supernatant was discarded. […]
The recovered RNA was validated by electrophoresis. The gel was incubated with buffer containing 5 μM III-3 in 40 mM HEPES, pH 7.4, 125 mM KCl, and 5 mM MgCl2 for 30 min, and the fluorescence of 4Pepper-III-3 in the gel was detected.

CN(CCO)c1ccc(/C=C(\C#N)c2ccc(C#N)cc2)cc1 [III-3]
RNA labeling in yeast cells [1]: bright yellow-green fluorescence only when F30-Pepper-1 was expressed and in the presence of III-3 | fluorescent labeling of RNA in bacteria [2]: bright yellow-green fluorescence only when F30-Pepper-1 was expressed and in the presence of III-3

B1: F30-Pepper-1: RNA aptamer, Pepper-1 in F30 scaffold RNA, SEQ ID NO: 2 (nucleic acid)
chain: UUGCCAUGUGUAUGUGGGUUCGCCCACAUACUCUGAUGAUCCCCAAUCGUGGCGUGUCGGCCUGCUUCGGCAGGCACUGGCGCCGGGAUCAUUCAUGGCAA
modifications: RNA, backbone not given here
form in which aptamer binds III-3 (monomer or polymer) [3]: monomer | Tm [4]: 55 °C | Activation folds ([5]; Activation of III-3 by Pepper mutants with multiple mutations): 3600 folds | Activation folds ([5]; Activation of III-3 by Pepper mutants with single mutation): 3600 folds | Kd [6]: 3.5 nM

B2: mCherry-4Pepper: mCherry mRNA fused with 4Pepper-7, SEQ ID No: 26 (nucleic acid)
chain: AUGGUGAGCAAGGGCGAGGAGGAUAACAUGGCCAUCAUCAAGGAGUUCAUGCGCUUCAAGGUGCACAUGGAGGGCUCCGUGAACGGCCACGAGUUCGAGAUCGAGGGCGAGGGCGAGGGCCGCCCCUACGAGGGCACCCAGACCGCCAAGCUGAAGGUGACCAAGGGUGGCCCCCUGCCCUUCGCCUGGGACAUCCUGUCCCCUCAGUUCAUGUACGGCUCCAAGGCCUACGUGAAGCACCCCGCCGACAUCCCCGACUACUUGAAGCUGUCCUUCCCCGAGGGCUUCAAGUGGGAGCGCGUGAUGAACUUCGAGGACGGCGGCGUGGUGACCGUGACCCAGGACUCCUCCCUGCAGGACGGCGAGUUCAUCUACAAGGUGAAGCUGCGCGGCACCAACUUCCCCUCCGACGGCCCCGUAAUGCAGAAGAAGACCAUGGGCUGGGAGGCCUCCUCCGAGCGGAUGUACCCCGAGGACGGCGCCCUGAAGGGCGAGAUCAAGCAGAGGCUGAAGCUGAAGGACGGCGGCCACUACGACGCUGAGGUCAAGACCACCUACAAGGCCAAGAAGCCCGUGCAGCUGCCCGGCGCCUACAACGUCAACAUCAAGUUGGACAUCACCUCCCACAACGAGGACUACACCAUCGUGGAACAGUACGAACGCGCCGAGGGCCGCCACUCCACCGGCGGCAUGGACGAGCUGUACAAGUAACUCGCUAGAGCAUGGUUAAGCUUCCCACGGAGGAUCCCCAAUCGUGGCGUGUCGGCCUCUCCCAAUCGUGGCGUGUCGGCCUCUCCCAAUCGUGGCGUGUCGGCCUCUCCCAAUCGUGGCGUGUCGGCCUCUCUUCGGAGAGGCACUGGCGCCGGAGAGGCACUGGCGCCGGAGAGGCACUGGCGCCGGAGAGGCACUGGCGCCGGGAUCCUCCGUGGG
in-gel fluorescence of recovered RNA [7]: bright Pepper-III-3 fluorescence signals

B3: F30-Broccoli: reported monomeric Broccoli aptamer in F30 scaffold, SEQ ID NO: 4, control (nucleic acid)
chain: UUGCCAUGUGUAUGUGGGUUCGCCCACAUACUCUGAUGAUCCAGACGGUCGGGUCCAGAUAUUCGUAUCUGUCGAGUAGAGUGUGGGCUGGAUCAUUCAUGGCAA
modifications: listed as RNA, further chemistry not given here
Tm [4]: 48 °C

B4: TagBFP-4Pepper: TagBFP mRNA fused with 4Pepper-7, SEQ ID No: 27 (nucleic acid)
chain: AUGAGCGAGCUGAUUAAGGAGAACAUGCACAUGAAGCUGUACAUGGAGGGCACCGUGGACAACCAUCACUUCAAGUGCACAUCCGAGGGCGAAGGCAAGCCCUACGAGGGCACCCAGACCAUGAGAAUCAAGGUGGUCGAGGGCGGCCCUCUCCCCUUCGCCUUCGACAUCCUGGCUACUAGCUUCCUCUACGGCAGCAAGACCUUCAUCAACCACACCCAGGGCAUCCCCGACUUCUUCAAGCAGUCCUUCCCUGAGGGCUUCACAUGGGAGAGAGUCACCACAUACGAAGACGGGGGCGUGCUGACCGCUACCCAGGACACCAGCCUCCAGGACGGCUGCCUCAUCUACAACGUCAAGAUCAGAGGGGUGAACUUCACAUCCAACGGCCCUGUGAUGCAGAAGAAAACACUCGGCUGGGAGGCCUUCACCGAGACGCUGUACCCCGCUGACGGCGGCCUGGAAGGCAGAAACGACAUGGCCCUGAAGCUCGUGGGCGGGAGCCAUCUGAUCGCAAACAUCAAGACCACAUAUAGAUCCAAGAAACCCGCUAAGAACCUCAAGAUGCCUGGCGUCUACUAUGUGGACUACAGACUGGAAAGAAUCAAGGAGGCCAACAACGAGACCUACGUCGAGCAGCACGAGGUGGCAGUGGCCAGAUACUGCGACCUCCCUAGCAAACUGGGGCACAAGCUCAAUUAACACUCGCUAGAGCAUGGUUGGUACCGUAGUCAAGCUUCCCACGGAGGAUCCCCAAUCGUGGCGUGUCGGCCUCUCCCAAUCGUGGCGUGUCGGCCUCUCCCAAUCGUGGCGUGUCGGCCUCUCCCAAUCGUGGCGUGUCGGCCUCUCUUCGGAGAGGCACUGGCGCCGGAGAGGCACUGGCGCCGGAGAGGCACUGGCGCCGGAGAGGCACUGGCGCCGGGAUCCUCCGUGGG
in-gel fluorescence of recovered RNA [7]: bright Pepper-III-3 fluorescence signals
